This passage reports Kd results from US20240034816A1 (Sanofi, published 2024).

The target in experiment [1] is T1, human CD16b (human FcgRIIIB) (human, UniProt O75015 17-200, limits assumed).
T1 construct: also called HuFcyRIIIb
Briefly: SPR, fit Steady State Affinity, Exp No 1. (In general: SPR reads the build-up and loss of mass on a sensor chip optically.)

Experiment [2] concerns the target T2, human CD32b (human FcγRIIB) (human, UniProt P31994 43-217, limits assumed).
T2 construct: also called HuFcyRIIb
T2 sequence (looked up): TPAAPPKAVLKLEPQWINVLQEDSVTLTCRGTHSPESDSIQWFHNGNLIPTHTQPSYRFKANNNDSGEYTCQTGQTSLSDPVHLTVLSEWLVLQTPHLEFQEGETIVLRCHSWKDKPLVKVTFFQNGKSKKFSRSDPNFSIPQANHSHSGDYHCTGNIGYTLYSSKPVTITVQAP
The experiment in a line: SPR, fit Steady State Affinity, Exp No 1.

Usually Kd stands for a measure of binding affinity in units of concentration.

T1 sequence (O75015 17-200 limits assumed): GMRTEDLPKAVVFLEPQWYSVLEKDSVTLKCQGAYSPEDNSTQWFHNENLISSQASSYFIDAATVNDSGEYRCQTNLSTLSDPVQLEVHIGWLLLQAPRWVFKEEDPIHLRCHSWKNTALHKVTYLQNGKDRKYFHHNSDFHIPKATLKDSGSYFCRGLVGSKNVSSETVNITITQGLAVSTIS

B1: NKp46-BCMA_Fc-ADE-DSB NKCE (bispecific antibody, human IgG1, kappa)
light: QTVVTQEPSLTVSPGGTVTLTCASSTGTVTPSNYANWVQQKPGQAFRGLIGDNNSRPPGTPARFSASLLGGKAALTLSGVQPEDEAEYYCALWFGNQWVFGGGTKLTVLGGGGSGGGGSDIQMTQSPSSLSASVGDRVTITCRASQDISNYLNWYQQKPGKAPKLLIYYTSRLHSGVPSRFSGSGSGTDFTFTISSLQPEDIATYFCQQGNTRPWTFGGGTKVEIKGGGGSGGGGSRTVAAPSVFIFPPSDEQLKSGTASVVCLLNNFYPREAKVQWKVDNALQSGNSQESVTEQDSKDSTYSLSSTLTLSKADYEKHKVYACEVTHQGLSSPVTKSFNRGEC
heavy: QVQLVQSGAEVKKPGSSVKVSCKASGYTFSDYVINWVRQAPGQGLEWMGEIYPGSGTNYYNEKFKAKATITADKSTSTAYMELSSLRSEDTAVYYCARRGRYGLYAMDYWGQGTTVTVSSQVQLVESGGGVVQPGRSLRLSCAASGFTFSNFGMHWVRQAPGRGLEWVAVIWSDETNRYYADSVKGRFTVSRDNVKSTVYLQMNSLISEDTAVYYCARDQQYCSSDSCFTWFDPWGQGTLVTVSSASTKGPSVFPLAPSSKSTSGGTAALGCLVKDYFPEPVTVSWNSGALTSGVHTFPAVLQSSGLYSLSSVVTVPSSSLGTQTYICNVNHKPSNTKVDKKVEPKSCDKTHTCPPCPAPELLAGPDVFLFPPKPKDTLMISRTPEVTCVVVDVSHEDPEVKFNWYVDGVEVHNAKTKPCEEQYNSTYRCVSVLTVLHQDWLNGKEYKCKVSNKALPAPEEKTISKAKGQPREPQVYTLPPCRDELTKNQVSLWCLVKGFYPSDIAVEWESNGQPENNYKTTPPVLDSDGSFFLYSKLTVDKSRWQQGNVFSCSVMHEALHNHYTQKSLSLSPG
chain: DKTHTCPPCPAPELLAGPDVFLFPPKPKDTLMISRTPEVTCVVVDVSHEDPEVKFNWYVDGVEVHNAKTKPCEEQYNSTYRCVSVLTVLHQDWLNGKEYKCKVSNKALPAPEEKTISKAKGQPREPQVCTLPPSRDELTKNQVSLSCAVKGFYPSDIAVEWESNGQPENNYKTTPPVLDSDGSFFLVSKLTVDKSRWQQGNVFSCSVMHEALHNRFTQKSLSLSPG
With B1, the Kd was determined as 1260 nM in experiment [1] and 1350 nM in experiment [2].
